Data: the RNAGym collection of RNA variant scans (doi:10.7554/elife.80360)

B1: CPEB3 Ribozyme (parent)
chain: GGGGGCCACAGCAGAAGCGUUCACGUCGCGGCCCCUGUCAGAUUCUGGUGAAUCUGCGAAUUCUGCUGU

Variants of: B1
Experiment: self-cleavage, relative activity (ratio to wild type); higher = more cleavage; co-transcriptional

Row | Variant | self-cleavage
1 | GGGGGCCAAAGCAGAAGCGUUCACGUCGCGGCCCCUGUCGGAUUCUGGUGAAUCUGCGAAUUCUGCUGU [C9A A40G] | 1
2 | GGGGGCCUCAGCAGAAGCGUUCACUUCGCGGCCCCUGUCAGAUUCUGGUGAAUCUGCGAAUUCUGCUGU [A8U G25U] | 0.0965
3 | GGGGGCCUCAGCAGAAGCGUUCACGUCGCGGCCCCUGUCAGAUUCUGGUGAAUCUGCGAAUUUUGCUGU [A8U C63U] | 1.03
4 | GGGGGCCUCAGCAGAAGCGUUCACGUCGCGGCCCCUGUCAGAUUCUGGUGAAUCUGCGAAUUGUGCUGU [A8U C63G] | 0.782
5 | GGGGGCCAAAGAAGAAGCGUUCACGUCGCGGCCCCUGUCAGAUUCUGGUGAAUCUGCGAAUUCUGCUGU [C9A C12A] | 0.806
6 | GGGGGCCUCAGCAGAAGCGUUCACGUCGCGGCCCCUGUCAGAUUCUGGUGAAUCUGUGAAUUCUGCUGU [A8U C57U] | 0.361
7 | GGGGGCCUCAGCAGAAGCGUUCACGUCGCGGCCCCUGUCAGAUUCUGGUGAAUCUGAGAAUUCUGCUGU [A8U C57A] | 0.299
8 | GGGGGCCUCAGCAGAAGCGUUCACGUCGCUGCCCCUGUCAGAUUCUGGUGAAUCUGCGAAUUCUGCUGU [A8U G30U] | 0.519
9 | GGGGGCCUCAGCAGAAGCGUUCACGUCGCGGCCCCUGUCAGAUUCUGGUGAAUCUCCGAAUUCUGCUGU [A8U G56C] | 0.761
10 | GGGGGCCUCAGCAGAAGCGUUCACGUCUCGGCCCCUGUCAGAUUCUGGUGAAUCUGCGAAUUCUGCUGU [A8U G28U] | 0.0893
11 | GGGGGCCUCAGCAGAAGCGUUCACGUCACGGCCCCUGUCAGAUUCUGGUGAAUCUGCGAAUUCUGCUGU [A8U G28A] | 0.141
12 | GGGGGCCAAAGCAGAAGCGUUCACGUCGCGGCCCCUGUCAGUUUCUGGUGAAUCUGCGAAUUCUGCUGU [C9A A42U] | 0.997
13 | GGGGGCCAAAGCAGAAGCGUUCACGUCGCGGCCCCUGUCAGGUUCUGGUGAAUCUGCGAAUUCUGCUGU [C9A A42G] | 0.997
14 | GGGGGCCUCAGCAGAAGCGUUCACGUCGCGGCCCCUGUCAGAUUCUGUUGAAUCUGCGAAUUCUGCUGU [A8U G48U] | 1.03
15 | GGGGGCCUCAGCAGAAGCGUUCACGUCGCGGCCCCUGUCAGAUUCUGGUGAAUCUGCGAAUUCUACUGU [A8U G65A] | 0.901
16 | GGGGGCCAAAGCAGAAGCGUUCACGUCGCGGGCCCUGUCAGAUUCUGGUGAAUCUGCGAAUUCUGCUGU [C9A C32G] | 0.843
17 | GGGGGCCAAAGCAGAAGCGUUCACGUCGCGGACCCUGUCAGAUUCUGGUGAAUCUGCGAAUUCUGCUGU [C9A C32A] | 1
18 | GGGGGCCAAAGCAGAAGCGUUCACGUCGUGGCCCCUGUCAGAUUCUGGUGAAUCUGCGAAUUCUGCUGU [C9A C29U] | 0.992
19 | GGGGGCCAAAGCAGAAGCGUUCACGUCGAGGCCCCUGUCAGAUUCUGGUGAAUCUGCGAAUUCUGCUGU [C9A C29A] | 0.86
20 | GGGGGCCUCAGCAGAAGCGUUCACGUCGCGGCCCCUGUCAGAUUCUGGAGAAUCUGCGAAUUCUGCUGU [A8U U49A] | 0.98
21 | GGGGGCCUCAGCAGAAGCGUUCACGUCGCGGCCCCUGUCAGAUUCUGGCGAAUCUGCGAAUUCUGCUGU [A8U U49C] | 1.02
22 | GGGGGCCUCAGCAGAAGCGUUCACGUCGCGGCCCCUGUCAAAUUCUGGUGAAUCUGCGAAUUCUGCUGU [A8U G41A] | 0.789
23 | GGGGGCCUCAGCAGAAGCGUUCACGUCGCGGCCCCUGUUAGAUUCUGGUGAAUCUGCGAAUUCUGCUGU [A8U C39U] | 0.986
24 | GGGGGCCUCAGCAGAAGCGUUCACGUCGCGGCCCCUGUCAGAUACUGGUGAAUCUGCGAAUUCUGCUGU [A8U U44A] | 0.97
25 | GGGGGCCUCAGCAGAAGCGUUCACGUCGCGGCCCCGGUCAGAUUCUGGUGAAUCUGCGAAUUCUGCUGU [A8U U36G] | 0.163
26 | GGGGGCCUCAGCAGAAGCGUUCACGUCGCGGCCCCUGUCAGAGUCUGGUGAAUCUGCGAAUUCUGCUGU [A8U U43G] | 0.913

Row | Variant | self-cleavage
27 | GGGGGCCAAAGCAGAAGCGUUCCCGUCGCGGCCCCUGUCAGAUUCUGGUGAAUCUGCGAAUUCUGCUGU [C9A A23C] | 1.01
28 | GGGGGCCAAAGCAGAGGCGUUCACGUCGCGGCCCCUGUCAGAUUCUGGUGAAUCUGCGAAUUCUGCUGU [C9A A16G] | 0.992
29 | GGGGGCCAAAGCAGACGCGUUCACGUCGCGGCCCCUGUCAGAUUCUGGUGAAUCUGCGAAUUCUGCUGU [C9A A16C] | 0.56
30 | GGGGGCCAAAGCAGAAGGGUUCACGUCGCGGCCCCUGUCAGAUUCUGGUGAAUCUGCGAAUUCUGCUGU [C9A C18G] | 0.26
31 | GGGGGCCAAAGCAGAAGCGUUAACGUCGCGGCCCCUGUCAGAUUCUGGUGAAUCUGCGAAUUCUGCUGU [C9A C22A] | 0.251
32 | GGGGGCCAAAGCAGAAGCGUUGACGUCGCGGCCCCUGUCAGAUUCUGGUGAAUCUGCGAAUUCUGCUGU [C9A C22G] | 0.181
33 | GGGGGCCAAAGCAGAAGCGUUUACGUCGCGGCCCCUGUCAGAUUCUGGUGAAUCUGCGAAUUCUGCUGU [C9A C22U] | 0.424
34 | GGGGGCCUCAGCACAAGCGUUCACGUCGCGGCCCCUGUCAGAUUCUGGUGAAUCUGCGAAUUCUGCUGU [A8U G14C] | 0.593
35 | GGGGGCCAAAGCAGAAGCGUUCACGUCGCGGCCCCUGUUAGAUUCUGGUGAAUCUGCGAAUUCUGCUGU [C9A C39U] | 0.973
36 | GGGGGCCUCAGCAGAAGCGUUCACGUCGCGGCCCCUGUCAGAUUAUGGUGAAUCUGCGAAUUCUGCUGU [A8U C45A] | 1.01
37 | GGGGGCCUCAGCAGAAGCGUUCACGUCGCGGCCCCUGUCAGAUUGUGGUGAAUCUGCGAAUUCUGCUGU [A8U C45G] | 0.958
38 | GGGGGCCUCAGCAGAAGCGUACACGUCGCGGCCCCUGUCAGAUUCUGGUGAAUCUGCGAAUUCUGCUGU [A8U U21A] | 0.994
39 | GGGGGCCAAAGCAGAAGCGUUCACGUCGCGGCCCCUGUCAGAUUCUGGUGAUUCUGCGAAUUCUGCUGU [C9A A52U] | 1.03
40 | GGGGGCCAAAGCAGAAGCGUUCACGUCGCGGCCCCUGUCAGAUUCUGGUGAGUCUGCGAAUUCUGCUGU [C9A A52G] | 1.02
41 | GGGGGCCAAAGCAGAAGCGUUCACGUCGCGGCCCCUGUCAGAUUCUGGUGACUCUGCGAAUUCUGCUGU [C9A A52C] | 1.01
42 | GGGGGCCUCAGCAGAAGCGUUCACGUCGCGGCCCGUGUCAGAUUCUGGUGAAUCUGCGAAUUCUGCUGU [A8U C35G] | 0.435
43 | GGGGGCCAAAGCAGAAGCGUUCAUGUCGCGGCCCCUGUCAGAUUCUGGUGAAUCUGCGAAUUCUGCUGU [C9A C24U] | 0.934
44 | GGGGGCCAAAGCAGAAGCGUUCAAGUCGCGGCCCCUGUCAGAUUCUGGUGAAUCUGCGAAUUCUGCUGU [C9A C24A] | 0.891
45 | GGGGGCCUCAGCAGAAGCGUUCACGUCGCGGCACCUGUCAGAUUCUGGUGAAUCUGCGAAUUCUGCUGU [A8U C33A] | 0.935
46 | GGGGGCCUCAGCAGAAGCGUUCACGUCGCGGCUCCUGUCAGAUUCUGGUGAAUCUGCGAAUUCUGCUGU [A8U C33U] | 0.996
47 | GGGGGCCUCAGCAGAAGCGUUCACGUCGCGGCCCCUGUCAGAUUCUGGUGAAUCAGCGAAUUCUGCUGU [A8U U55A] | 0.967
48 | GGGGGCCAAAGCCGAAGCGUUCACGUCGCGGCCCCUGUCAGAUUCUGGUGAAUCUGCGAAUUCUGCUGU [C9A A13C] | 0.965
49 | GGGGGCCUCAGCAGAAGCGUUCACGUCGCGGCCCCUGUCAGAUUCUGGUGAAUCUGCGAAUUCUGAUGU [A8U C66A] | 0.857
50 | GGGGGCCUCAGCAGAAGCGUUCACGUCGCGGCCCCUGUCAGAUUCUGGUGAAUCUGCGAAUUCUGUUGU [A8U C66U] | 0.993
51 | GGGGGCCUCAGCAGAAGCGUUCACGUCGCGGCCCCUGUCAGAUUCUGGUGAAUCUGCAAAUUCUGCUGU [A8U G58A] | 0.995
52 | GGGGGCCUCAGCAGAAGCGUUCACGUCGCGGCCCCUCUCAGAUUCUGGUGAAUCUGCGAAUUCUGCUGU [A8U G37C] | 0.169

Row | Variant | self-cleavage
53 | GGGGGCCUCAGCAGAAGCGUUCACGUCGCGGCCCCUGUCAGAUUCUGGUGAAUCUGCGAACUCUGCUGU [A8U U61C] | 0.808
54 | GGGGGCCUCAGCAGAAGCGUUCACGUCGCGGCCCCUGUCAGAUUCUGGUGAAACUGCGAAUUCUGCUGU [A8U U53A] | 0.913
55 | GGGGGCCUCAGCAGAAGCGUUCACGUCGCGGCCCCUGUCAGAUUCUGGUGAAGCUGCGAAUUCUGCUGU [A8U U53G] | 0.891
56 | GGGGGCCUCACCAGAAGCGUUCACGUCGCGGCCCCUGUCAGAUUCUGGUGAAUCUGCGAAUUCUGCUGU [A8U G11C] | 0.873
57 | GGGGGCCAACGCAGAAGCGUUCACGUCGCGGCCCCUGUCAGAUUCUGGUGAAUCUGCGAAUUCUGCUGU [C9A A10C] | 1.02
58 | GGGGGCCAAGGCAGAAGCGUUCACGUCGCGGCCCCUGUCAGAUUCUGGUGAAUCUGCGAAUUCUGCUGU [C9A A10G] | 1.01
59 | GGGGGCCAAAGCAGAAGCGUUCACGUCGCGGCCCCUGUCAGAUUCUGGUGAAUCUGCGAAUUCUGCUGU [C9A] | 1.03
60 | GGGGGCCUCAGCAGAAGCCUUCACGUCGCGGCCCCUGUCAGAUUCUGGUGAAUCUGCGAAUUCUGCUGU [A8U G19C] | 0.146
61 | GGGGGCCUCAGCAGAAGCUUUCACGUCGCGGCCCCUGUCAGAUUCUGGUGAAUCUGCGAAUUCUGCUGU [A8U G19U] | 0.483
62 | GGGGGCCAAAGCAGUAGCGUUCACGUCGCGGCCCCUGUCAGAUUCUGGUGAAUCUGCGAAUUCUGCUGU [C9A A15U] | 0.886
63 | GGGGGCCAAAGCAGCAGCGUUCACGUCGCGGCCCCUGUCAGAUUCUGGUGAAUCUGCGAAUUCUGCUGU [C9A A15C] | 0.931
64 | GGGGGCCAAAGCAGAAGCGUUCACGUCGCGGCCCCUGUCAGAUUCUGGUGAAUCUGCGUAUUCUGCUGU [C9A A59U] | 0.897
65 | GGGGGCCUCAGCAGAAGCGUUCACGUCGCGGCCCCUGUCAGAUUCUGGUGAAUCUGCGAAUUCGGCUGU [A8U U64G] | 0.87
66 | GGGGGCCUCAGCAGAAGCGUUCACGUCGCGGCCCCUGUCAGAUUCUGGUGAAUCUGCGAAUUCCGCUGU [A8U U64C] | 0.953
67 | GGGGGCCAAAGCAGAAGCGUUCACGUCGCGGCCGCUGUCAGAUUCUGGUGAAUCUGCGAAUUCUGCUGU [C9A C34G] | 0.995
68 | GGGGGCCUCAGCAGAAGCGUUCACGUCGCGGCCCCUGUCAGAUUCUGGUGAAUCUGCGAAUGCUGCUGU [A8U U62G] | 0.945
69 | GGGGGCCUCAGCAGAAGCGUUCACGUCGCGGCCCCUGUCAGAUUCUGGUGAAUCUGCGAAUACUGCUGU [A8U U62A] | 0.97
70 | GGGGGCCUCAGCAGAAGCGUUCACGUCGAGGCCCCUGUCAGAUUCUGGUGAAUCUGCGAAUUCUGCUGU [A8U C29A] | 0.269
71 | GGGGGCCUCAGCAGAAGCGUUCACGUCGCGGCCCCUGUCAGAUUCUGGUGAAUCUGCGAAUUCUGCUGG [A8U U69G] | 1.06
72 | GGGGGCCUCAGCAGAAGCGUUCACGUCGCGGCCCCUGUCAGAUUCUGGUUAAUCUGCGAAUUCUGCUGU [A8U G50U] | 1.01
73 | GGGGGCCUCAGCAGAAACGUUCACGUCGCGGCCCCUGUCAGAUUCUGGUGAAUCUGCGAAUUCUGCUGU [A8U G17A] | 0.388
74 | GGGGGCCUCAGCAGAAGCGUUAACGUCGCGGCCCCUGUCAGAUUCUGGUGAAUCUGCGAAUUCUGCUGU [A8U C22A] | 0.154
75 | GGGGGCCUCAGCAGAAGCGUUCACGUCGCGGCCCCUGUCAGAUUCUGGUGAAUCUGCGAAUUCUGCCGU [A8U U67C] | 1
76 | GGGGGCCUCAGCAGAAGCGUUCACGUCGCGGCCCCUGUCAGAUUCUGGUGAAUCUGCGAAUUCUGCAGU [A8U U67A] | 1.03
77 | GGGGGCCAAAGCAGAAGCGUUCACGUAGCGGCCCCUGUCAGAUUCUGGUGAAUCUGCGAAUUCUGCUGU [C9A C27A] | 0.798
78 | GGGGGCCAAAGCAGAAGCGUUCACGUCGCGGCCCCUGUCAGAUUGUGGUGAAUCUGCGAAUUCUGCUGU [C9A C45G] | 1.03
